We go through 1 substance from PMC8012654.

This test deals with recombinant GST-αII spectrin peptide, codons 891-1231 (repeats 9 and 10), R1098Q (mouse) (UniProt P16546). Nature of the test: SPR; BIAcore T200, CM5 chip; GST-spectrin peptides captured by their GST tag on amine-coupled goat anti-GST antibody to 1,000 RU; CaM 20 nM to 500 nM flowed in HBS running buffer with 2 mM CaCl2; 25 °C, 20 µl/min; global fit, 1:1 Langmuir model with mass transport step; KD = kd/ka.

As to “purified bovine brain calmodulin (CaM) (from UniProt P62157 1-149) (natural protein)”, the reduction in affinity for CaM relative to the WT peptide was determined as 19%.
